Test results taken from PMC8207216.
pKd: −log10 of the molar value.

Biological target: APE1 wild type (human) (UniProt P27695)
Experiment: EMSA
Settings: 1 mM EDTA (no catalysis); apparent KD; N at position 16 of strand 1 = abasic ribonucleotide analog (tetrahydrofuran with 2'-OH); EMSA: 2 nM DNA, 0-20 nM APE1, 50 mM Tris pH 8, 1 mM EDTA, 0.2 mg/ml BSA, 1 mM DTT, 5% sucrose, 30 min on ice, 10% native gel

UniProt P27695, sequence (P27695 whole entry): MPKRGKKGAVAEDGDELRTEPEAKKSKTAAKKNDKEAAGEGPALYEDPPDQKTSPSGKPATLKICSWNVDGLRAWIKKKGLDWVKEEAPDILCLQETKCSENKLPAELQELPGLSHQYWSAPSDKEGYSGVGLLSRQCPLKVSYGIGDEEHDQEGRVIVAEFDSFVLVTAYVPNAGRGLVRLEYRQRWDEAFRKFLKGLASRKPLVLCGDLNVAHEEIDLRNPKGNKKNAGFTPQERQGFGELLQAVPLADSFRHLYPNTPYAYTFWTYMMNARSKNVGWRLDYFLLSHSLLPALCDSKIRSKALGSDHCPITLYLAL

Question: With “CGTTCGCTGATGCGCNCGACGGATCCGCAT / ATGCGGATCCGTCGAGCGCATCAGCGAACG [30-mer rAP DNA]” as the sequence, how does the pKd read?
Answer: 8.54
